Results reported in patent US20260242834A1, “ENZYMES, POLYNUCLEOTIDES ENCODING SAME, AND METHODS OF USING SAME FOR PRODUCING MESCALINE” (YEDA RESEARCH AND DEVELOPMENT CO. LTD., priority 2023, published 2026).

How the values were obtained:
[1] = molecular target: 5-HT2A serotonin receptor (Homo sapiens, UniProt P28223); conditions: 5-HT2A serotonin receptor agonist, cited from earlier work
[2] = OMT in vitro assays with lysates from transformed E. coli in the presence of SAM; assay type: biochemical, Lophophora williamsii (Peyote); conditions: substrates 3, 6 or 9
N. benthamiana leaves = test: Transient expression in N. benthamiana leaves by agroinfiltration; assay type: cell-based, Nicotiana benthamiana; conditions: tyramine 4 to dopamine 3 and 3-MeO-tyramine 7 to 3,4-diOH-5-MeO-phenethylamine 6
From the text: TyDC2, CYP1-12, PPO1, MT1-4, OMT1,5,10,11 and the previously characterized BvCYP76AD6 were amplified and cloned in pAlpha2-NPT II-Ubq10-CCD-Ter10 vector digested with BsaI using ClonExpress II One Step Cloning kit (Vazyme). For BvCYP76AD6 the inventors used stocks of previously transformed bacteria containing the specific gene (Polturak et al., 2016; New Phyol.). All plasmids were sequenced and transformed into Agrobacterium tumefaciens strain GV3101 by electroporation. A. tumefaciens harboring the overexpression constructs were grown overnight at 28° C. in Luria-Bertani (LB) medium in the presence of kanamycin and gentamycin. Bacterial cells were collected by centrifugation, washed, and resuspended in infiltration buffer (10 mM MES, 2 mM MgCl2, 2 mM Na3PO4, 0.5% glucose and 100 mM acetosyringone) to OD600=0.8. Individual and/or equal volumes of A. tumefaciens suspension with different expression vectors were combined to obtain the desired gene combinations and incubated for 2 h at room temperature. The solutions were infiltrated into 4- or 5-week-old N. benthamiana leaves from the abaxial side using a 1-ml needleless syringe. […] Leaf samples were flash frozen and extracted as previously described with 300 μl ice-cold methanol with 0.1% formic acid and analyzed via LC-MS. […]

3-MeO-tyramine 7 = test: Heterologous expression in yeast supplemented with 3-MeO-tyramine 7; assay type: cell-based, S. cerevisiae; conditions: two days from galactose induction; compared with LwCYP84A220

Sequence of 5-HT2A serotonin receptor (P28223 whole entry): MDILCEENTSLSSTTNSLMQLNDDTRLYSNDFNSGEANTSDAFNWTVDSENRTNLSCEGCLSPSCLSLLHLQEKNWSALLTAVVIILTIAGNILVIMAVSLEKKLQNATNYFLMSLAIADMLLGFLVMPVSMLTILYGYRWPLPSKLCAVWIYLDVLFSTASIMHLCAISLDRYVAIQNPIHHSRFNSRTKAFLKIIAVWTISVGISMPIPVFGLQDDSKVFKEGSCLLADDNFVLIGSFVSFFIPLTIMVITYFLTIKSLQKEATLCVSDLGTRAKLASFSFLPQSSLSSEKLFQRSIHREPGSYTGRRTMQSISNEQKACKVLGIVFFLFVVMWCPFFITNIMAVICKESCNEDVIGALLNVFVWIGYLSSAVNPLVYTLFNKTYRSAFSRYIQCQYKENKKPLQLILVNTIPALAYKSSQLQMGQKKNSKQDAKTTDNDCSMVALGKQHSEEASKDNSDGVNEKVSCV

In the case of COc1cc(CCN)cc(OC)c1OC [Mescaline], the “times less potent effects than LSD” value ([1]; compared with LSD) is given as 1,000-3,000 times and the “times less potent than psilocybin” value ([1]; compared with psilocybin) is given as 30 times.

B1: OMT5: Peyote O-methyltransferase (protein, listed as Lophophora williamsii)
chain: MGSASGSAERTQMGEDEACSFAMTITSGSVPPMVLKAVIELDVLEIIKRAGPGAHLSPAEIAAQLPTTNPGAAAMLDRMLRLLASYDVLSYSLHTLPDGRVERLYGLAPVCQFLTNNEDGVTLSALSLMNQDKVLMESWYHLKDAVLDGGIPFNKAYGMTAFEYHGTDPRFNKVFNNGMSNHSTITMKKLLENYKGFEGVSTLVDVGGGTGATLNMIISKHPTIKGINFDLPHVIEDAPTYPGVEHIGGDMFVSVPKGDAIFMKWICHDWSDEHCLKFLKNCYAALADHGKVIVCEYILPVAPETNHAARTVFHVDAIMLAHNPGGKERTEQEFESLAKGAGFEGFRVACSAYDTKVMEFLKNN
For B1, the O-methylation regioselectivity [2] was “O-methylated the two meta hydroxyl groups”.

B2: LwCYP12: Peyote CYP76AD-subfamily cytochrome P450 hydroxylase (protein, listed as Lophophora williamsii)
chain: MGYYAIFAVVLPFLWTCFYLLKLNPTSKLTSTIRLPPGPRPLPIIGNLHQLGERPHRTLANLAKVYGPIISLKFGSITTIAVSSADVAKEMFQKHDLALASRKVPAAVRANGHDNFSVAWLPVTPKWRFLRKISAIQLFSTQRLDARQSLRQAKVVELLDYIKARSNAGEPVDIGEAAFTTSLNLLSNTFFSMDLASYSSAASGEFKELVWKIMEEIGKPNLADCFPLVGFISRMSVNRELMGYGNKLNEVFAEIIEKRLSAANSSEGRGNGDVLDTLLRIMEEDDSELSLDDIMHLLMDFFTAGTDTTSSTLEWAMTELLHNPEKMAKAQAELEQVLGKDTVSIQESDIAKLLYLQATVKETLRMHPPTVFLLPRKADSDIDLYGHLVPKNAQVFVNLWAISYDPSTWENPDLFSPERFLDQDIDMKGQDFGFIPFGAGRRICPGLTLAYRMLNLMLGTLIHVFNWKLGDGLSREDLDMTDKFGITIQKAKPLRAIPILK
In the case of B2, the “hydroxylation activity in planta” value (N. benthamiana leaves) is reported as “regioselectively catalyzes the two meta hydroxylations” and the “catalytic activity for the production of 3,4-diOH-5-MeO-phenethylamine 6” value (3-MeO-tyramine 7) is reported as “superior catalytic activity”.
